The values that follow come from the DeepSol protein solubility set.

The nature of the series: soluble on expression in E. coli; label from the status in PepcDB or PDB records.
“MPERDALLTDLVGDRAAEWDTSGELPRDLLVRLGADGLLCAEVAAEHGGLGLGSRENGEFTAHVGSLCSSLRSVMTSQGMAAWTVQRLGDAGQRATFLKELTSGKLAAVGFSERQAGSDLSAMRTRVRLDGDTAVVDGHKVWTTAAAYADHLVVFGLQEDGSGAVVVVPADTPGVRVERVPKPSGCRAAGHADLHLDQVRVPAGAVLAGSGASLPMLVAASLAYGRKSVAWGCVGILRACRTAAVAHARTREQFGRPLGDHQLVAGHIADLWTAEQIAARVCEYASDHWDEGSPEMVPATILAKHVAAERAAAGAATAAQVLASAGAREGHVVERAYRDAKLMEIIEGSSEMCRVMLAQHALALPA”: the “soluble on expression in E. coli” value is “soluble”.
The result for “MPEVKTEKPHLLDMGKPQLRMVDLNLLTVFDAVMQEQNITRAAHTLGMSQPAVSNAVARLKVMFNDELFVRYGRGIQPTARAFQLFGSVRQALQLVQNELPGSGFEPTSSERVFNLCVCSPLDNILTSQIYNRVEKIAPNIHVVFKASLNQNTEHQLRYQETEFVISYEEFRRPEFTSVPLFKDEMVLVASRKHPRISGPLLEGDVYNEQHAVVSLDRYASFSQPWYDTPDKQSSVAYQGMALISVLNVVSQTHLVAIAPRWLAEEFAESLDLQILPLPLKLNSRTCYLSWHEAAGRDKGHQWMEDLLVSVCKR” reads “not soluble”.
The result for “MPFEKYTVPVSGRSDAAIEEELTRLRAELAAEYDLREVVHRFGESDFTFLSVLDSYALLDRIDPAAFVKDEQMPYWAEIWPAAVTLSRQIVETGELAGKSVLELGAGVGMASIAAARSGARVLCTDYSTEALRFVAYNAMKNRVPLDTARLDWRMVKGAEKFDAVIAADVLYERVNLLPIVTAIDALLAPGGAAYIADPRRRLADQFLELVHENGFEVAETRMFDAEGDQTVAVTIYKLQRLKALEHHHHHH” reads “soluble”; that for “MPGERFSHSRCHAIAIKELQRRTENRDGTALHILPKSQRKLAIFLINMDSATKRLTDMNARLDAMGLKAERVAGVNGRELQYPIPEFSEISYMLMHGRRTSPPEIGCYLSHVACANKFMTGDADIALILEDDVVFEDDFLDAIDEAVLNGNDWDILRLTTVSNGRKFAFRALSNGRSLAVALTREKGSGAYLVNRRAGKWISKLIPMRLAYDIAFDLEYLSGLKAAFIYPLCATQDADGESQIQNNLRIYRLPRWRYFTVLPYRAYLETSRFLLRGLRFLVAKAKVAMERGKPKAVQAGRLEHHHHHH”, “soluble”; that for “MPGIIYEGKGTNMEYADVFDSLVGDLKDDVLSLQLTNFDDVNHSYKSDGKCSMSVKDFDGYAENMPVKNVEYNGQKYIFMRSISDDAQPSQVFISVDGDERGRKRGMLITSFCGILRMISTFDYQIANSVTAKIFKVLGEYSCEEEE”, “not soluble”.
Under “MPGQKQKGKKNVRRTKTRFELIEPSKGQLIAEVEDTHGGYPPRFSCKTVDGDIIIAPIQGSIMKGPKRVLVKKDNLVLLVPIDFTTGKEGTTSYYIHHVYTSEDRHQLEKKGFLEKKDKISDATKSTKVVFGVESSDKSLEKAKDEELDIDTI” stands “not soluble”.
For the sequence “MPHFTKRPAQPQAALAEAAGLRWLAEASSAVAQVVSADAEQITTVGVETQLPTPDAAFKAGEELARIHLAGAPAFGCPPAGWAGLNYIGTQGQACLSTPTWGVFYSQQRVLPFARRARRRNHLTEHALWVVEAACDLISELPDDVPPARIHGDLWFGNLLFGTDGPVFIDPAAHGGHPETDLAMLDVFGAPYLDEIREGYLSINPLPDGWRERTPMHQLHPLAVHAASHGPSYGVELLHAAKATLKLLDLEHHHHHH”, the “soluble on expression in E. coli” value is “not soluble”.
The result for “MPIGHSREVLVRLRDILALLADGCKTTSLIQQRLGLSHGRAKALIYVLEKEGRVTRVAFGNVALVCLSMDQYRQLVDGMIREVERLVTTNKLKFISPPRLHDLIIKDPQARKFFSSIIPIAHRTAIILSFLNHLLKMIYGEPYVKTDETVYLTANRKVHIEPPAK” reads “soluble”; that for “MPILQELRLGKRISRDISLADLYQEWIELKILPSSRSEETKKKYLLRKNTIERLFGNKKVTQIRASEYQRIMNKYGQTVGRNFLGRLNTGIHQSIQMAIADKVLIDDFTQHVELFSSKEQQMTLEHHHHHH”, “not soluble”; that for “MPIRFLHTADLHLDSPLRTFGDLARERRRDFLKTFDRIVNLAIKREVDCILIAGDLFDSTSVGAETVGRVQDAFSRLAGRGVQVVLIPGTHDNIISAESVYSRYQFTGVHILREPAVDEPLRLDIRGEAVFFYGFAYRSDRSREALESMRRRSGDGIHVGLLHGSLKGNPEWEMRKKDIPFSVADLVALDLDYIALGHYHDAACLEEGGRVIACYPGSPEGKKFGENGPRYALIVEVAPGNASVERVEVQTRIIREFNVDASLFAEPAALEAELARLGTSDTVGRIRLCGTVEEPLDTANLSGRVKGNFAWLELVDETDLYNSGHVKRMEREDSIRGLFIRKIHERYDAAGSDAERELCRDALRLVMGRFSRGGGN”, “not soluble”.
Regarding “MPITIGRGFLKSEMFSQSAISQRSFFTLLWEKIKDFFCDTQRSTADQYIKELCDVASPPDAQRLFDLFCKLYELSSPSCRGNFHFQHYKDAECQYTNLCIKDGEDIPLCIMIRQDHYYYEIMNRTVLCVDTQSAHLKRYSDINIKASTYVCEPLCCLFPERLQLSLSGGITFSVDLKNIEETLIAMAEKGNLCDWKEQERKAAISSRINLGIAQAGVTAIDDAIKNKIAAKVIENTNLKNAAFEPNYAQSSVTQIVYSCLFKNEILMNMLEESSSHGLLCLNELTEYVALQVHNSLFSEDLSSLVETTKNEAHHQSLEHHHHHH”, the “soluble on expression in E. coli” value was “not soluble”.
The result for “MPIVNQSSLVPYSAEQMYQLVNDYEKYPQFLSGCIGAKTISRGNNELEAELQIQKLGISQSFSTHNKMLPNERIEMKLVNGPFRQLQGAWNFQPFDEQSCKISLYLEFEFSNPVVGMVFGKIFNELTLKMVNAFKQRAKEVYGVLEHHHHHH” reads “soluble”; that for “MPKDKLVITVSGLAGSGTTTLSKKIAEHYGLKHVYAGLIFRQMAKEKGMSLEEFQKYAELHPEIDREVDRRQIEAAKEGNVVIEGRLAGWMVKNADLKIWLDAPIRVRAERVAKREGISVEEAFMKIAEREMQNRKRYLNLYGIDINDLSIYDLIINTSKWSPEGVFAIVKAAIDHLDPVGDAGSKKEKEVG”, “soluble”; that for “MPKFDVSKSDLERLIGRSFSIEEWEDLVLYAKCELDDVWEENGKVYFKLDSKDTNRPDLWSAEGVARQIKWALGIEKGLPKYEVKKSNVTVYVDEKLKDIRPYGVYAIVEGLRLDEDSLSQMIQLQEKIALTFGRRRREVAIGIFDFDKIKPPIYYKAAEKTEKFAPLGYKEEMTLEEILEKHEKGREYGHLIKDKQFYPLLIDSEGNVLSMPPIINSEFTGRVTTDTKNVFIDVTGWKLEKVMLALNVMVTALAERGGKIRSVRVVYKDFEIETPDLTPKEFEVELDYIRKLSGLELNDGEIKELLEKMMYEVEISRGRAKLKYPAFRDDIMHARDILEDVLIAYGYNNIEPEEPKLAVQGRGDPFKDFEDAIRDLMVGFGLQEVMTFNLTNKEVQFKKMNIPEEEIVEIANPISQRWSALRKWILPSLMEFLSNNTHEEYPQRIFEVGLATLIDESRETKTVSEPKLAVALAGTGYTFTNAKEILDALMRHLGFEYEIEEVEHGSFIPGRAGKIIVNGRDIGIIGEVHPQVLENWNIEVPVVAFEIFLRPLYRH”, “soluble”.
Under “MPKPSVGINGFGRIGRLVLRAAVEKDSVNVVAVNDPFISIDYMVYLFQYDSTHGRFKGTVAHEGDYLLVAKEGKSQHKIKVYNSRDPAEIQWGASGADYVVESTGVFTTIEKANAHLKGGAKKVIISAPSADAPMFVVGVNHEKYDHANDHIISNASCTTNCLAPLAKVINDNFGIIEGLMTTVHAVTATQKTVDGPSGKLWRDGRGAGQNIIPASTGAAKAVGKVIPELNGKLTGMAFRVPTPDVSVVDLTARLEKPASLDDIKKVIKAAADGPMKGILAYTEDQVVSTDFVSDTNSSIFDAGASISLNPHFVKLVSWYDNEFGYSNRVVDLISYIATKA” stands “not soluble”.
Under “MPKSDTKQKKRRSNKNRLRIKRARLFGPKDIDQVKEDIESQKKIEYDPELPGGGHFYCCECDRHFITEKVLMEHKRSNPHRRRAKEVREVAHSQRDAEWAVGLT” stands “not soluble”.
As to “MPLITTETGKKMHVLEDGRKLITVIPGDGIGPECVEATLKVLEAAKAPLAYEVREAGASVFRRGIASGVPQETIESIRKTRVVLKGPLETPVGYGEKSANVTLRKLFETYANVRPVREFPNVPTPYAGRGIDLVVVRENVEDLYAGIEHMQTPSVAQTLKLISWKGSEKIVRFAFELARAEGRKKVHCATKSNIMKLAEGTLKRAFEQVAQEYPDIEAVHIIVDNAAHQLVKRPEQFEVIVTTNMNGDILSDLTSGLIGGLGFAPSANIGNEVAIFEAVHGSAPKYAGKNVINPTAVLLSAVMMLRYLEEFATADLIENALLYTLEEGRVLTGDVVGYDRGAKTTEYTEAIIQNLGKTPRKTQVRGYKPFRLPQVDGAIAPIVPRSRRVVGVDVFVETNLLPEALGKALEDLAAGTPFRLKMISNRGTQVYPPTGGLTDLVDHYRCRFLYTGEGEAKDPEILDLVSRVASRFRWMHLEKLQEFDGEPGFTKAQGED”, the “soluble on expression in E. coli” value is “soluble”.
As to “MPLSTSDNIAAVIVTHKRVELLRASLEVVAAQTHPVKWIIVVDNGCEDAVRDLLHSVAGDRGIYLPSHTNLGGAGGFAYGFLTALALGADAIWCADDDGRPEGPQVLATLIDAAVTHQLDEVSPVVCNMDDPNRLAFPLRRGLEWRRYRSELIDPNNPSDTLLPGIASLFNGALISAAAMERIGVPDLRLFIRGDEVEYHRRLVRSGLNFGTCLTTAYLHPDGSDEFKPILGGRMHTQYPASDAKRYFTYRNRGYLMNQPGMRRLLPQEYARFAWFFLIQRRDPRGFLEWFKLHQLGRSEKFERPLEHHHHHH”, the “soluble on expression in E. coli” value was “not soluble”.
For “MPLSYSSPSSSEERSDDPSKYDGDFGVPQICFCGKQLELVERLIGDQKKTFLKCPMSGQDDNYHVDKGWDLAVHEQCFCIDKRFGEHRELIQNAFKFGGDSNRLQINQIHAEIEDLKHRLDKKDAEIARLMDALGKK”, the “soluble on expression in E. coli” value is listed as “not soluble”.
The result for “MPLTQTQRLINTYGASLKNGTISNEELIILLDPNTFTKSEGYVDPNAPVSDSNHSKMDAIKDFVLTIGPTLDSEILHQLTSRMIELSPPGDRNTFMRGSSLEKAFLAFEMAHYPTKAEEHFNSTRVRTEFPGENDIDNLKAVILNPIIAFFQSPPGTDEKLEKLIKLCTDYKEHLKPSLTDDANNLVNKKHAIVTNMLAALTDSTAPNNATKIKNMEQILTEENKATLKDRRDSFSGARFLESILHILSLGIYSKLTKGTFKFWKSHGEALSDNIEEVSKQQPGMK” reads “not soluble”; that for “MPLVTRNIEPRHLCRQTLPSVRSELECVTNITLANVIRQLGSLSKYAEDIFGELFTQANTFASRVSSLAERVDRLQVKVTQLDPKEEEVSLQGINTRKAFRSSTIQDQKLFDRNSLPVPVLETYNTCDTPPPLNNLTPYRDDGKEALKFYTDPSYFFDLWKEKMLQDTKDIMKEKRKHRKEKKDNPNRGNVNPRKIKTRKEEWEKMKMGQEFVESKEKLGTSGYPPTLVYQNGSIGCVENVDASSYPPPPQSDSASSPSPSFSEDNLPPPPAEFSYPVDNQRGSGLAGPKRSSVVSPSHPPPAPPLGSPPGPKPGFAPPPAPPPPPPPMIGIPPPPPPVGFGSPGTPPPPSPPSFPPHPDFAAPPPPPPPPAADYPTLPPPPLSQPTGGAPPPPPPPPPPGPPPPPFTGADGQPAIPPPLSDTTKPKSSLPAVSDARSDLLSAIRQGFQLRRVEEQREQEKRDVVGNDVATILSRRIAVEYSDSEDDSSEFDEDDWSD”, “soluble”; that for “MPMLSEEEGGAKIVLEGPKELLDRIVEALKEVYDPEIPVNVYDLGLIYEVRVEGPREKPRIKVKMSLTAIGCPVSVALPAYVEDAIREAVPEAEDVEVEVVFDPPWTPERVTPEGRELLKTIYGYDVVEQWKRAAQQQYGG”, “soluble”.
